The target in data set [1] is T1, wtPSP (human phosphoserine phosphatase, PSP) (Homo sapiens, UniProt P78330).
T1 construct: gene PSPH; recombinant human PSP with His-tag, plasmid pET28_hPSP, E. coli BL21(DE3), Talon purification, homodimer (54 kDa expected; 53 kDa by SEC)
T1 sequence (P78330 1-225): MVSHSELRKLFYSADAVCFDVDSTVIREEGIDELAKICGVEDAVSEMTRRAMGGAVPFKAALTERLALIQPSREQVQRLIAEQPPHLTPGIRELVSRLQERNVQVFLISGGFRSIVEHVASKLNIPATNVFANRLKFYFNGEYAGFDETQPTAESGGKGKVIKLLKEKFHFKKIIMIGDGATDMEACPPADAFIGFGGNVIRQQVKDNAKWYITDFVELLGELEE
Put plainly: SAT-coupled continuous assay of L-Ser production (DTNB, […] nm type read-out). The data set is classed as biochemical. To be noted: 3 mM MgCl2, 50 mM Hepes, 100 mM KCl, pH 7, 37 °C; 12 nM enzyme.

For data set [2], the target named is T1, wtPSP (human phosphoserine phosphatase, PSP). Kind of data set: PNP-coupled phosphate release assay. The data set is classed as biochemical. From the text: (§1) PNP-coupled phosphate release assay on wtPSP (human phosphoserine phosphatase, PSP)
Data set [3] addresses T2, wtPSP (human phosphoserine phosphatase, PSP) (Homo sapiens, UniProt P78330, D32G).
T2 construct: gene PSPH; recombinant human PSP with His-tag, plasmid pET28_hPSP, E. coli BL21(DE3), Talon purification, homodimer (54 kDa expected; 53 kDa by SEC)
T2 sequence (P78330 1-225 D32G): T1 sequence (P78330 1-225) with D32G
Kind of data set: PNP-coupled phosphate release assay. The data set is classed as biochemical.
Excerpt: as §1

Data set [4] deals with T3, wtPSP (human phosphoserine phosphatase, PSP) (Homo sapiens, UniProt P78330, D32G/R27S).
T3 construct: gene PSPH; recombinant human PSP with His-tag, plasmid pET28_hPSP, E. coli BL21(DE3), Talon purification, homodimer (54 kDa expected; 53 kDa by SEC)
T3 sequence (P78330 1-225 R27S/D32G): T1 sequence (P78330 1-225) with R27S, D32G
Kind of data set: PNP-coupled phosphate release assay. The data set is classed as biochemical.
Excerpt: as §1

Data set [5] addresses T4, wtPSP (human phosphoserine phosphatase, PSP) (Homo sapiens, UniProt P78330, R27S).
T4 construct: gene PSPH; recombinant human PSP with His-tag, plasmid pET28_hPSP, E. coli BL21(DE3), Talon purification, homodimer (54 kDa expected; 53 kDa by SEC)
T4 sequence (P78330 1-225 R27S): T1 sequence (P78330 1-225) with R27S
Kind of data set: PNP-coupled phosphate release assay. The data set is classed as biochemical.
Excerpt: as §1

Substrate in data set [6]: N[C@@H](COP(=O)(O)O)C(=O)O
Kind of data set: SAT-coupled continuous assay of L-Ser production. The data set is classed as biochemical, Homo sapiens. To be noted: 3 mM MgCl2, 50 mM Hepes, 100 mM KCl, pH 7, 37 °C. From the text: SAT-coupled continuous assay of L-Ser production on wtPSP (human phosphoserine phosphatase, PSP)

Substitutions are numbered along the chain they refer to. Numbers in names are those of the source.

`N[C@@H](COP(=O)(O)O)C(=O)O` [3-PS]: the Km (as a rule, the substrate concentration at which the rate is half of its maximum) in data set [1] came to 42 ± 12 µM.
With `N[C@@H](CO)C(=O)O` [L-Ser], the IC50 (as a rule, the concentration needed to halve the response being measured) in data set [2] is 273 ± 31 µM; in data set [3] it was 746 ± 26 µM; in data set [4] it was 523 ± 74 µM; in data set [5], 171 ± 15 µM.

B1: wtPSP (human phosphoserine phosphatase, PSP) (Homo sapiens; R27S) (protein)
chain: T1 sequence (P78330 1-225) with R27S
notes: recombinant human PSP with His-tag, plasmid pET28_hPSP, E. coli BL21(DE3), Talon purification, homodimer (54 kDa expected; 53 kDa by SEC)
Take B1: in data set [6] (12 nM enzyme), the Km is 50 ± 3 µM; the kcat (usually the number of substrate molecules converted per active site and unit of time at saturation) is 39 ± 1 s⁻¹; the kcat/Km – broadly, the turnover number divided by the Michaelis constant – turned out to be 780000 M⁻¹ s⁻¹.

B2: wtPSP (human phosphoserine phosphatase, PSP) (Homo sapiens; D32G/R27S) (protein)
chain: T1 sequence (P78330 1-225) with R27S, D32G
notes: as for B1
As to B2, in data set [6] (180 nM enzyme), the Km worked out at 75 ± 12 µM, the kcat turned out to be 2.2 ± 0.1 s⁻¹ and the kcat/Km came out at 29300 M⁻¹ s⁻¹.

B3: wtPSP (human phosphoserine phosphatase, PSP) (Homo sapiens; D32G) (protein)
chain: T1 sequence (P78330 1-225) with D32G
notes: as for B1
B3: in data set [6] (180 nM enzyme), the Michaelis-Menten constant (Km) was determined as 53 ± 5 µM, the catalytic constant (kcat) came out at 2.3 ± 0.1 s⁻¹ and the kcat/Km was determined as 43400 M⁻¹ s⁻¹.
